In US11994512B2, “Single-cell genomic methods to generate ex vivo cell systems that recapitulate in vivo biology with improved fidelity” (Massachusetts Institute of Technology, priority 2018, dated 2024):

Tested on: intracellular proteome of ENR+CD and ENR organoids
Assay: LC-MS/MS TMT proteomics of ENR+CD versus ENR organoids
Type: cell-based, C57BL/6 mice
Details: for change: up = enriched in ENR+CD, down = enriched in ENR, FDR<0.05 and log fold change cut-off
[1] = protein abundance, ENR+CD versus ENR organoids, aggregate of the four sample pairs
[2] = protein abundance, ENR+CD versus ENR organoids, replicate M1-1, log2 ratio
[3] = protein abundance, ENR+CD versus ENR organoids, replicate M1-2, log2 ratio
[4] = protein abundance, ENR+CD versus ENR organoids, replicate M2-1, log2 ratio
[5] = protein abundance, ENR+CD versus ENR organoids, replicate M2-2, log2 ratio

B1: Q3V3I2 (protein, UniProt Q3V3I2 1-354, looked up)
chain: MGSGISSESKESARRSKELEKKLQEDAERDARTVKLLLLGAGESGKSTIVKQMKIIHKNGYSKQECMEFKAVIYSNTLQSILAIVKAMATLGIDYVNPRSREDQEQLHSMANTLEDGDMTPQLAEIIKRLWGDPGIQACFERASEYQLNDSAAYYLNDLDRLTAPGYVPNEQDVLHSRVKTTGIIETQFSFKDLNFRMFDVGGQRSERKKWIHCFEGVTCIIFCAALSAYDMVLVEDEEVNRMHESLHLFNSICNHKYFATTSIVLFLNKKDLFQEKVAKVHLSICFPEYTGPNTFEDAGNYIKNQFLDLNLKKEDKEIYSHMTCATDTQNVKFVFDAVTDIIIKENLKDCGLF
modifications: full-length
For B1, the “Average logFC” value [1] was −1.949, the “M1-1 Log2 Median Normalized” value [2] was −1.715 and the “M1-2 Log2 Median Normalized” value [3] was −1.092. For the same molecule, the “M2-1 Log2 Median Normalized” value [4] was −2.2685, the “M2-2 Log2 Median Normalized” value [5] was −2.719 and the change was “down”.

B2: Q3V1V3 (protein, UniProt Q3V1V3 1-845, looked up)
chain: MSSKQEIMDDQRFRRVSKDPRFWEMPEKERKVKIDKRFRAMFHDKKFKLNYAVDKRGRPISHSTTEDLKRFYDLSDSDSDLSDEESKILSQKKAKQKKKQTKKEAKSIEKPIEEKKKETKKTDQKDSINKHDLNNSERVQKMKNSQKPQKIDSEISPKKDNEEFLQNKKKKRGTTDLSVEALPKGKLRTKDSSTSEMVKSSTMSSSKAKREKQSVVPVIMAKDNDGKMPDEDALEEDSDSASELGSDEESEDEIISDGKTSADEDESEEEDEEEEEDSEEEEEEEEEDESDSGPDLARGKGNVETSSEDEDDLADLFPEEPGFEHAWRELDKDAPRADEITRRLAVCNMDWDRLKAKDLLALFNSFKPKGGVVFSVKIYPSEFGKERMKEEQVQGPVELLSIPEDAPEKDWASREKLRDYQFKRLKYYYAVAECDSPETASKIYEDCDGLEFESSCSFIDLRFIPDDITFDDEPKDVALEVDLTAYKPKYFTSAAMGTSTVEITWDETDHERITTLNRKFKKDELLDMDFQAYLASSSEDEEEVEEAPEGEEGVNIGEDGKTKKSQKDDEEQIAKYRQLLQVIQEKEKKGKENDMEMEIKWVPGLKESAEEMVKNKLEGKDKLTPWEQFLEKKKEKKRLKKKQKALAEEDSEDELPSDVDFNDPYFAEEVKKIGIKKKSMKSAKDSASSEEETDLEKQKAEMALLVMDEEEDSKKHFNYDKIVEHQNLSKKKKKQLMKKKELVEDDFEVNVSDARFQAMYTSHLFNLDPSDPNFKKTKAMEKILEEKARHRERKEELLIQAVERAQQDTGKPTQKQPMDPALSMLIKSVKNKTEQFQARKKQRVK
modifications: full-length
With B2 the “Average logFC” value [1] was −1.244, the “M1-1 Log2 Median Normalized” value [2] was −1.45 and the “M1-2 Log2 Median Normalized” value [3] was −0.805. For the same molecule, the “M2-1 Log2 Median Normalized” value [4] was −0.9155, the “M2-2 Log2 Median Normalized” value [5] was −1.805 and the change was “down”.

B3: Q4V9W2 (protein, UniProt Q4V9W2 1-153, looked up)
chain: MAVPGCNKDNVRAGCRKCGYPGHLTFECRNFLRVDPKRDIVLDVSSTSSEDSDEENEELNKLQALQEKRINEEEEKKKEKSREKIKLKKRRKRSYSSATEEDSAKQKKQKYQKKEKKKEKKNKSKKGKHHKKEKKKRKKEKRSSPYHSELTKK
modifications: full-length
B3 was tested, and the “Average logFC” value (ENR+CD versus ENR organoids, sample pairs in aggregate (n=4, 2 technical replicates from two biological donors)) was −1.36, the “M1-1 Log2 Median Normalized” value (protein abundance ratio ENR+CD versus ENR organoids, sample pair M1-1, LC-MS/MS TMT proteomics) was −1.902 and the “M1-2 Log2 Median Normalized” value (protein abundance ratio ENR+CD versus ENR organoids, sample pair M1-2, LC-MS/MS TMT proteomics) was −0.824. The “M2-1 Log2 Median Normalized” value (protein abundance ratio ENR+CD versus ENR organoids, sample pair M2-1, LC-MS/MS TMT proteomics) was −1.2515, the “M2-2 Log2 Median Normalized” value (protein abundance ratio ENR+CD versus ENR organoids, sample pair M2-2, LC-MS/MS TMT proteomics) was −1.464 and the change was “down”.
